Experimental data reported in US20140213772A1 (AbbVie / Abbott, published 2014).

B1: AB274 (antibody, V domains shown)
VH: EVQLVQSGAEVKKPGSSVKVSCKASGGSFGGYGIGWVRQAPGQGLEWMGGITPFFGFADYAQKFQGRVTITADESTTTAYMELSGLTSDDTAVYYCARDPNEFWNGYYSTHDFDSWGQGTTVTVSS
VL: EIVLTQSPDFQSVTPKEKVTITCRASQDIGSELHWYQQKPDQPPKLLIKYASHSTSGVPSRFSGSGSGTDFTLTINGLEAEDAGTYYCHQTDSLPYTFGPGTKVDIKR
B2: AB441 (antibody, V domains shown)
VH: EVQLVQSGAEVKKPGASVKVSCKASGYTFANYGIIWVRQAPGQGLEWMGWINTYTGKPTYAQKFQGRVTMTTDTSTSTAYMELSSLRSEDTAVYYCARKLFTTMDVTDNAMDYWGQGTTVTVSS
VL: DIQMTQSPSSLSASVGDRVTITCRASQDISQYLNWYQQKPGKAPKLLIYYTSRLQSGVPSRFSGSGSGTDFTLTISSLQPEDFATYFCQQGNTWPPTFGQGTKLEIKR
B3: CODH12 (bispecific antibody)
chain 1: EVQLVESGGGVVQPGRSLRLSCSASGFIFSRYDMSWVRQAPGKGLEWVAYISHGGAGTYYPDSVKGRFTISRDNSKNTLFLQMDSLRPEDTGVYFCARGGVTKGYFDVWGQGTPVTVSSGGGGSGGGEIVLTQSPDFQSVTPKEKVTITCRASQNIGSELHWYQQKPDQSPKLLIKYASHSISGVPSRFSGSGSGTDFTLTINGLEAEDAATYYCHQSDTLPHTFGQGTKVDIKGGSGG
chain 2: EVQLVQSGAEVKKPGESVKISCKASGGSFRSYGISWVRQAPGQGLEWMGGITHFFGITDYAQKFQGRVTITADESTTTAYMELSGLTSDDTAVYYCAREPNDFWGGYYDTHDFDSWGQGTTVTVSSGGGGSGGGDIQMTQSPSSLSASVGDRVTITCRASGNIHNYLTWYQQTPGKAPKLLIYNAKTLADGVPSRFSGSGSGTDYTFTISSLQPEDIATYYCQHFWSIPYTFGQGTKLQITGGGR
B4: CODH1 (bispecific antibody)
chain 1: EVQLQESGPGLVKPSETLSLTCTVSGFSLSDYGVSWIRQPPGKGLEWLGLIWGGGDTYYNSPLKSRLTISKDNSKSQVSLKLSSVTAADTAVYYCAKQRTLWGYDLYGMDYWGQGTLVTVSSGEVQLVQSGAEVKKPGESVKISCKASGGSFRSYGISWVRQAPGQGLEWMGGITHFFGITDYAQKFQGRVTITADESTTTAYMELSGLTSDDTAVYYCAREPNDFWGGYYDTHDFDSWGQGTTVTVSSGG
chain 2: EIVLTQSPDFQSVTPKEKVTITCRASQNIGSELHWYQQKPDQSPKLLIKYASHSISGVPSRFSGSGSGTDFTLTINGLEAEDAATYYCHQSDTLPHTFGQGTKVDIKGGGGGGGDTQVTQSPSSLSASVGDRVTITCITSTDIDVDMNWYQQKPGKPPKLLISQGNTLRPGVPSRFSSSGSGTDFTFTISSLQPEDFATYYCLQSDNLPLTFGQGTKLEIKGGGGGR
B5: AB270 (antibody, V domains shown)
VH: EVQLQESGPGLVKPSETLSLTCTVSGFSLSDYGVSWIRQPPGKGLEWLGLIWGGGDTYYNSPLKSRLTISKDNSKSQVSLKLSSVTAADTAVYYCAKQRTLWGYDLYGMDYWGQGTLVTVSS
VL: DTQVTQSPSSLSASVGDRVTITCITSTDIDVDMNWYQQKPGKPPKLLISQGNTLRPGVPSRFSSSGSGTDFTFTISSLQPEDFATYYCLQSDNLPLTFGQGTKLEIK
notes: Benchmark anti-IL-1B mAb; also called 1B12.1; 1B12-1
B6: CODH2 (bispecific antibody)
chain 1: EVQLVQSGAEVKKPGESVKISCKASGGSFRSYGISWVRQAPGQGLEWMGGITHFFGITDYAQKFQGRVTITADESTTTAYMELSGLTSDDTAVYYCAREPNDFWGGYYDTHDFDSWGQGTTVTVSSGEVQLQESGPGLVKPSETLSLTCTVSGFSLSDYGVSWIRQPPGKGLEWLGLIWGGGDTYYNSPLKSRLTISKDNSKSQVSLKLSSVTAADTAVYYCAKQRTLWGYDLYGMDYWGQGTLVTVSSGG
chain 2: DTQVTQSPSSLSASVGDRVTITCITSTDIDVDMNWYQQKPGKPPKLLISQGNTLRPGVPSRFSSSGSGTDFTFTISSLQPEDFATYYCLQSDNLPLTFGQGTKLEIKGGGGGGGEIVLTQSPDFQSVTPKEKVTITCRASQNIGSELHWYQQKPDQSPKLLIKYASHSISGVPSRFSGSGSGTDFTLTINGLEAEDAATYYCHQSDTLPHTFGQGTKVDIKGGGGGR
B7: CODH4 (bispecific antibody)
chain 1: EVQLVQSGAEVKKPGESVKISCKASGGSFRSYGISWVRQAPGQGLEWMGGITHFFGITDYAQKFQGRVTITADESTTTAYMELSGLTSDDTAVYYCAREPNDFWGGYYDTHDFDSWGQGTTVTVSSGEVQLVESGGGVVQPGRSLRLSCSASGFIFSRYDMSWVRQAPGKGLEWVAYISHGGAGTYYPDSVKGRFTISRDNSKNTLFLQMDSLRPEDTGVYFCARGGVTKGYFDVWGQGTPVTVSSGG
chain 2: DIQMTQSPSSLSASVGDRVTITCRASGNIHNYLTWYQQTPGKAPKLLIYNAKTLADGVPSRFSGSGSGTDYTFTISSLQPEDIATYYCQHFWSIPYTFGQGTKLQITGGGGGGGEIVLTQSPDFQSVTPKEKVTITCRASQNIGSELHWYQQKPDQSPKLLIKYASHSISGVPSRFSGSGSGTDFTLTINGLEAEDAATYYCHQSDTLPHTFGQGTKVDIKGGGGGR
B8: CODH15 (bispecific antibody)
chain 1: EIVLTQSPDFQSVTPKEKVTITCRASQNIGSELHWYQQKPDQSPKLLIKYASHSISGVPSRFSGSGSGTDFTLTINGLEAEDAATYYCHQSDTLPHTFGQGTKVDIKGGGGGGGDIQMTQSPSSLSASVGDRVTITCRASGNIHNYLTWYQQTPGKAPKLLIYNAKTLADGVPSRFSGSGSGTDYTFTISSLQPEDIATYYCQHFWSIPYTFGQGTKLQITGGGGG
chain 2: EVQLVESGGGVVQPGRSLRLSCSASGFIFSRYDMSWVRQAPGKGLEWVAYISHGGAGTYYPDSVKGRFTISRDNSKNTLFLQMDSLRPEDTGVYFCARGGVTKGYFDVWGQGTPVTVSSGEVQLVQSGAEVKKPGESVKISCKASGGSFRSYGISWVRQAPGQGLEWMGGITHFFGITDYAQKFQGRVTITADESTTTAYMELSGLTSDDTAVYYCAREPNDFWGGYYDTHDFDSWGQGTTVTVSSGGR
B9: CODH3 (bispecific antibody)
chain 1: EVQLVESGGGVVQPGRSLRLSCSASGFIFSRYDMSWVRQAPGKGLEWVAYISHGGAGTYYPDSVKGRFTISRDNSKNTLFLQMDSLRPEDTGVYFCARGGVTKGYFDVWGQGTPVTVSSGEVQLVQSGAEVKKPGESVKISCKASGGSFRSYGISWVRQAPGQGLEWMGGITHFFGITDYAQKFQGRVTITADESTTTAYMELSGLTSDDTAVYYCAREPNDFWGGYYDTHDFDSWGQGTTVTVSSGG
chain 2: EIVLTQSPDFQSVTPKEKVTITCRASQNIGSELHWYQQKPDQSPKLLIKYASHSISGVPSRFSGSGSGTDFTLTINGLEAEDAATYYCHQSDTLPHTFGQGTKVDIKGGGGGGGDIQMTQSPSSLSASVGDRVTITCRASGNIHNYLTWYQQTPGKAPKLLIYNAKTLADGVPSRFSGSGSGTDYTFTISSLQPEDIATYYCQHFWSIPYTFGQGTKLQITGGGGGR
B10: AB461 (antibody, V domains shown)
VH: EVQLVQSGAEVKKPGESVKISCKASGGSFRSYGISWVRQAPGQGLEWMGGITHFFGITDYAQKFQGRVTITADESTTTAYMELSGLTSDDTAVYYCAREPNDFWGGYYDTHDFDSWGQGTTVTVSS
VL: EIVLTQSPDFQSVTPKEKVTITCRASQNIGSELHWYQQKPDQSPKLLIKYASHSISGVPSRFSGSGSGTDFTLTINGLEAEDAATYYCHQSDTLPHTFGQGTKVDIK
notes: Benchmark anti-IL-17 mAb; also called B6-5G

Molecular target: T1, IL-17 (UniProt Q16552 24-155)
Assay: ELISA

T1 sequence (Q16552 24-155 limits assumed): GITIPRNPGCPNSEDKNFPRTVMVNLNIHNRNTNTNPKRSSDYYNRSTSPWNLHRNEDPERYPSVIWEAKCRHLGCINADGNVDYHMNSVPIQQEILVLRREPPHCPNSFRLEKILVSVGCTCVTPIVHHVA

Row | Binder | EC50 [nM]
1 | B1 | 0.203

Molecular target: T2, TNF (UniProt P01375 77-233)
Assay: ELISA

T2 sequence (P01375 77-233 limits assumed): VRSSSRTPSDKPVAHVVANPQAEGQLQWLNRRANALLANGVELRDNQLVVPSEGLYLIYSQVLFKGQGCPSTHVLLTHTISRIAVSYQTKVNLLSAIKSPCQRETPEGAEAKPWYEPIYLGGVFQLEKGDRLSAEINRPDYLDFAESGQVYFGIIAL

Row | Binder | EC50 [nM]
2 | B2 | 0.398

Molecular target: T3, IL-1B (UniProt P01584 117-269)
Assay: SPR (Biacore)

Row | Binder | Kd [nM]
3 | B3 | 800
4 | B4 | 0.19
5 | B5 | 0.089
6 | B6 | 0.17
7 | B7 | 0.11
8 | B8 | 390
9 | B9 | 0.13

Molecular target: T1, IL-17
Assay: SPR (Biacore)

Row | Binder | Kd [nM]
10 | B10 | 0.0009
11 | B4 | < 0.0001
12 | B6 | 0.0004
13 | B9 | < 0.0002

Molecular target: T3, IL-1B
Assay: cell-based or functional assay

Row | Binder | IL-1B neutralization IC50 (pM)
14 | B3 | 2040
15 | B4 | 1300
16 | B5 | 245
17 | B6 | 1600
18 | B7 | 113
19 | B8 | 1660
20 | B9 | 1160

Molecular target: T1, IL-17
Assay: cell-based or functional assay

Row | Binder | IL-17 neutralization IC50 (pM)
21 | B10 | 2
22 | B3 | 220
23 | B4 | 30
24 | B6 | 29
25 | B7 | 4
26 | B8 | 7.4
27 | B9 | 12

Molecular target: T1, IL-17
Assay: cell-based or functional assay
Remark: another data set of the same source

Row | Binder | Neutralization IC50 (pM), IL-17 [pM]
28 | B1 | 10

Molecular target: T2, TNF
Assay: cell-based or functional assay

Row | Binder | Neutralization IC50 (pM), TNF [pM]
29 | B2 | 6
